Substitutions are numbered along the chain they refer to.
B1: Fab 10E8 3R conjugated with KK114 (Fab, V domains shown)
VH: EVQLVESGGGLVKPGGSLRLSCSASGFDFDNAWMTWVRQPPGKGLEWVGRITGPGEGWSVDYAAPVEGRFTISRLNSINFLYLEMNNLRMEDSGLYFCARTGKYYDFWSGYPPGEEYFQDWGRGTLVTVSS
VL: SYELTQETGVSVALGRTVTITCRGDSLRRHYASWYQKKPGQAPILLFYGKRNRPSGVPDRFSGSARGNRASLTISGAQAEDDAEYYCSSRDKSGSRLSVFGGGTKLTVL
notes: also called 3R mutant
B2: Fab 10E8 3R-WG conjugated with KK114 (Fab, V domains shown)
VH: B1 VH with W108G
VL: B1 VL
notes: also called 3R/WG mutant

Target: T1, HIV-1 envelope glycoprotein Env_(JR-CSF) on intact virions (HIV-1 group M subtype B, isolate JR-CSF, UniProt P20871)
T1 construct: also called JR-CSF Env-WT; JR-CSF virions; source: 293T cells transfected with the Env(-) pCHIV plasmid and the full-length JR-CSF Env clone; on pseudovirions purified by ultracentrifugation through a 20% sucrose cushion
Experiment: STED microscopy of fluorescent Fab on single virions
Conditions: one partner purified

| Binder | binding result |
| --- | --- |
| B1 | binds |
| B2 | binds |

Source: publication PMC6325134 (Nature Communications, 2019)
